From article PMC9537018

B1: Staphylococcal nuclease domain-containing protein 1 (SND1): N50Q (protein)
parent chain: MASSAQSGGSSGGPAVPTVQRGIIKMVLSGCAIIVRGQPRGGPPPERQINLSNIRAGNLARRAAATQPDAKDTPDEPWAFPAREFLRKKLIGKEVCFTIENKTPQGREYGMIYLGKDTNGENIAESLVAEGLATRREGMRANNPEQNRLSECEEQAKAAKKGMWSEGNGSHTIRDLKYTIENPRHFVDSHHQKPVNAIIEHVRDGSVVRALLLPDYYLVTVMLSGIKCPTFRREADGSETPEPFAAEAKFFTESRLLQRDVQIILESCHNQNILGTILHPNGNITELLLKEGFARCVDWSIAVYTRGAEKLRAAERFAKERRLRIWRDYVAPTANLDQKDKQFVAKVMQVLNADAIVVKLNSGDYKTIHLSSIRPPRLEGENTQDKNKKLRPLYDIPYMFEAREFLRKKLIGKKVNVTVDYIRPASPATETVPAFSERTCATVTIGGINIAEALVSKGLATVIRYRQDDDQRSSHYDELLAAEARAIKNGKGLHSKKEVPIHRVADISGDTQKAKQFLPFLQRAGRSEAVVEYVFSGSRLKLYLPKETCLITFLLAGIECPRGARNLPGLVQEGEPFSEEATLFTKELVLQREVEVEVESMDKAGNFIGWLHIDGANLSVLLVEHALSKVHFTAERSSYYKSLLSAEEAAKQKKEKVWAHYEEQPVEEVMPVLEEKERSASYKPVFVTEITDDLHFYVQDVETGTQLEKLMENMRNDIASHPPVEGSYAPRRGEFCIAKFVDGEWYRARVEKVESPAKIHVFYIDYGNREVLPSTRLGTLSPAFSTRVLPAQATEYAFAFIQVPQDDDARTDAVDSVVRDIQNTQCLLNVEHLSAGCPHVTLQFADSKGDVGLGLVKEGLVMVEVRKEKQFQKVITEYLNAQESAKSARLNLWRYGDFRADDADEFGYSR
B2: Staphylococcal nuclease domain-containing protein 1 (SND1): N416Q (protein)
parent chain: B1 parent chain
B3: Staphylococcal nuclease domain-containing protein 1 (SND1): N168Q (protein)
parent chain: B1 parent chain
B4: Staphylococcal nuclease domain-containing protein 1 (SND1): N283Q (protein)
parent chain: B1 parent chain
B5: Staphylococcal nuclease domain-containing protein 1 (SND1): tunicamycin (protein)
parent chain: B1 parent chain

Experiment: confocal colocalisation with ER marker CNX
Settings: glycan lost; control: WT-SND1-EGFP
For B1, the localisation_or_trafficking was “increases”. In the case of B2, the localisation_or_trafficking is reported as “no change”. In the case of B3, the localisation_or_trafficking is reported as “no change”. With B4 the localisation_or_trafficking was “no change”.

Experiment: confocal colocalisation with Golgi marker GM130
Settings: glycan lost; control: WT-SND1-EGFP
With B1 the localisation_or_trafficking was “decreases”. In the case of B2, the localisation_or_trafficking is reported as “no change”. For B3, the localisation_or_trafficking was “no change”. For B4, the localisation_or_trafficking was “no change”.

Experiment: immunoblot of protein level, rescue by MG132 or CQ
Settings: glycan lost; control: untreated WT-SND1-EGFP
In the case of B5, the degradation_or_half_life is reported as “decreases”. In the case of B1, the degradation_or_half_life is reported as “decreases”.
